# Assay results from patent US8022177B2, “Peptides and calcium regulation in mammalian cells” (The Board of Trustees of the University of Illinois, priority 2005, dated 2011).
# Experiments:
# [1] = target: T1, Cav3.1 (Homo sapiens, UniProt O43497); test: Whole-cell patch clamp of Cav3.1 current in Cav3.1-HEK cells transfected with γ6, γ4, their first transmembrane domains or point mutants (Example 3); format: cell-based; set-up: Activation K / Inactivation K: unit not given here; details: for Peak current density: Cav3.1-HEK cells, control 48.43±2.62; for Calcium current density (unit not given): Example 2, control −48.39+/−2.6, fusion series control −46.9+/−5; for Activation K / Activation V peak / Activation V½ / Deactivation τ @−100 mV / Inactivation K / Inactivation V½ / Inactivation τ @−20 mV / Time to peak @−25 mV: Table 3.2; for Normalized Current Density: relative to vector control (100.0%), Table 3.3
# T1 construct: expressed in transfected cells; host or cells: HEK-293, stably transfected
# Method: Transfection. HEK-293 cells stably transfected with the Cav3.1 α1 subunit were transiently transfected with vectors containing GFP and γ subunits cDNA when the cultures reached 50% confluency. Lipofectamine 2000 reagent (Invitrogen) was used following manufacturer's protocol.
# Electrophysiology. Whole cell Ca2+ currents were recorded at room temperature using an Axon Instruments Axopatch-1D amplifier, a Digidata 1200 interface and pClamp8.0 software about 48 hours after transfection. Cell capacitance was typically around 10 pF, but ranged from 5-40 pF. Recording micropipettes were made from borosilicate glass (2-3 Mohms tip resistance), and filled with solution contained (in mM) 130 NaCl, 10 EGTA, 2 MgCl2, 1 CaCl2, 10 HEPES, 3 Tris-ATP, and 0.3 Li2GTP or 0.3 Tris-GTP. Tyrode's solution was used as the bath solution. It contained (in mM) 137 NaCl, 1 KCl, 1 MgCl2, 0.33 NaH2PO4, 2 CaCl2, 10 HEPES. Both solutions were adjusted to pH 7.4 with NaOH and 280 mOsm with sucrose.
# We determined the biophysical characteristics of Cav3.1 currents in transfected HEK-293 cells and effects of the first transmembrane domain of γ4 and γ6 on these properties. Test parameters were optimized for studying Cav3.1 current. The time constant (τ) of deactivation (τdeac) was obtained by single exponential fitting of tail currents. For Cav3.1 currents, the cells were clamped at a holding potential of −100 mV, then depolarized to −20 mV for 4 msec, and repolarized to various voltages from −120 mV to −60 mV at 10 mV interval for 150 msec to elicit tail currents.
# The voltage dependence of activation was measured using tail currents. For Cav3.1 currents, the cells were clamped at a holding potential equal to −100 mV, and then depolarized briefly to a conditioning potential, varying from −90 mV to +60 mV, and finally clamped at −60 mV before inactivation. Using this protocol, all tail currents are elicited at the same driving force (at −60 mV), so the current amplitude accurately reflects the number of channels opened during the different conditioning potentials.
# A series of conditioning prepulses of 500 msec were used to measure voltage dependence of inactivation in our experiments. Channels initially open and then reach steady-state inactivation during the 500 msec long prepulses. The membrane potential is stepped to a fixed test potential of −20 mV, where maximal peak current is elicited. Currents elicited at each test potential reflect how many channels are not in the inactivated state after a steady-state inactivation; that is, how many channels are available to open. The conditioning prepulse potentials were changed from −120 mV to 50 mV, and the test potential is fixed at −20 mV.
# Data collection and analysis. To probe the structural features necessary for the function of γ subunits, we are using HEK-293 cell line stably transfected with Cav3.1 α1 subunit. These cells are then transiently transfected with vectors containing various chimeric, truncated or mutant gamma subunits. […] There is inherent variation in calcium current density in the HEK-Cav3.1 stable cell line likely due to differences in the batch used, passenger number, extent of cellular confluence, or for other unknown reasons. The averaged current density of each test group of cells was normalized to the mean current density of a parallel control group of cells plated from the same batch of cells and analyzed on the same day. A minimum of 5 cells (typically 7 to 10) from each group was used to calculate the mean behavior of test and control cells from each days recording. At least two independent transfections were performed for each test condition. Overall, averages were obtained from 21 control groups of cells that had been transfected with empty vector over several months. The data are pooled together to reduce the variance. […] The current density of the control cells over many months justified the pooling of data recorded from different batches of cells transfected with mutated γ subunits. […]
# [2] = target: T1, Cav3.1; test: Whole-cell patch clamp of Cav3.1 dependent LVA calcium current in HEK-293/Cav3.1 cells transiently transfected with γ subunits (Example 1); format: cell-based
# Method: 2.3. Transfection. Untransfected HEK-293 cells, HEK-293 cell lines stably transfected with Cav3.1, and HL-1 cells were transiently transfected with vectors containing γ subunit, GFP, and modified CFP cDNAs using Lipofectamine 2000 reagent (InVitrogen) as per the manufacturer's recommendations. HEK-293 cells were grown to 70-80% confluence before transfection. HL-1 cells were grown to 50-75% confluence before transfection.
# 2.4. Electrophysiology. Whole-cell calcium currents were recorded using an Axopatch-1 D patch clamp system and Clampex 8.0 software. Pipettes were fabricated from borosilicate glass and had typical resistances of 2-4 MΩ. The pipette solution contained (in mM): 130 NaCl, 10 EGTA, 2 MgCl2, 1 CaCl2, 10 HEPES, 3 Tris-ATP, and either 0.3 Li2GTP or 0.3 Tris-GTP, adjusted to pH 7.4 with NaOH and 280 mOsm with sucrose. The bath solution contained (in mM): 137 NaCl (for HEK-293 experiments) or 120 TEACl (for HL-1 experiments), 1 KCl, 1 MgCl2, 0.33 NaH2PO4, 2 CaCl2 (for HEK-293 experiments) or 5 CaCl2 (for HL-1 experiments), 10 glucose (for HL-1 experiments only), 10 HEPES, and 30 μM TTX (for HEK-293 experiments only), adjusted to pH 7.4 with NaOH (for HEK-293 experiments) or TEAOH (for HL-1 experiments) and 280 mOsm with sucrose. NaCl was used as the major salt in the pipette solution order to eliminate any outward K+ currents.
# Recordings from HEK-293 cells were made 48-96 h posttransfection, at which time expression, as measured by GFP fluorescence, peaked. HL-1 cells were used for recording 24-36 h post-transfection. Current densities in HEK-293/Cav3.1 cell experiments were normalized to control for variation in current expression in the different frozen stocks of stable cell lines used. […] HL-1 experiments were performed using a single stock of cells. All HEK-293 data are from current records in which pipette and whole-cell capacitance were about 100% compensated and series resistance was compensated to >80%. Whole-cell capacitance and series resistance were not compensated for HL-1 recordings as currents were typically <100 pA. Series resistance values were typically <10 MX, and no records were used in which the voltage error (as defined by Ver=Imax×Ra) was greater than 5 mV. The holding potential of all protocols used for HEK-293 cells was −100 mV except for steady-state inactivation protocols where the holding potential was −120 mV. The holding potential for protocols used for HL-1 cells was −90 mV. Current-voltage relationships for all HEK-293 and HL-1 cells were measured using 50 ms test depolarizations. Peak current amplitudes for activation curves were determined by fitting tail currents, elicited by stepping membrane voltage from varying test potentials to −60 mV, with the Boltzman equation. Test potential steps for activation protocols were of varied durations, corresponding to the time to peak of the elicited current. Inactivation curves were determined by fitting peak amplitudes of currents, observed in a test pulse to −20 mV, following 500 ms steps to varying potentials, with the Boltzman equation. Time to peak was determined using the current-voltage protocol described above. Inactivation time constants were determined by fitting the decay phase of currents to an exponential equation and deactivation time constants were determined by fitting the decay phase of tail currents to an exponential equation. […] Currents were recorded at 40 kHz and on-line filtered at either 5 or 10 kHz. In some cases currents were off-line filtered at 1 kHz to further reduce noise. Current/voltage relationships and tail currents were recorded from HEK cells using an on-line P/−4 subtraction procedure. Calcium currents recorded from HL-1 cells were off-line leak subtracted. The average membrane capacitance of untransfected HEK-293 cells in pilot experiments was 12.5±1.4 pF (n=8). […]
# T1 sequence (O43497 whole entry, the tested form may be a part): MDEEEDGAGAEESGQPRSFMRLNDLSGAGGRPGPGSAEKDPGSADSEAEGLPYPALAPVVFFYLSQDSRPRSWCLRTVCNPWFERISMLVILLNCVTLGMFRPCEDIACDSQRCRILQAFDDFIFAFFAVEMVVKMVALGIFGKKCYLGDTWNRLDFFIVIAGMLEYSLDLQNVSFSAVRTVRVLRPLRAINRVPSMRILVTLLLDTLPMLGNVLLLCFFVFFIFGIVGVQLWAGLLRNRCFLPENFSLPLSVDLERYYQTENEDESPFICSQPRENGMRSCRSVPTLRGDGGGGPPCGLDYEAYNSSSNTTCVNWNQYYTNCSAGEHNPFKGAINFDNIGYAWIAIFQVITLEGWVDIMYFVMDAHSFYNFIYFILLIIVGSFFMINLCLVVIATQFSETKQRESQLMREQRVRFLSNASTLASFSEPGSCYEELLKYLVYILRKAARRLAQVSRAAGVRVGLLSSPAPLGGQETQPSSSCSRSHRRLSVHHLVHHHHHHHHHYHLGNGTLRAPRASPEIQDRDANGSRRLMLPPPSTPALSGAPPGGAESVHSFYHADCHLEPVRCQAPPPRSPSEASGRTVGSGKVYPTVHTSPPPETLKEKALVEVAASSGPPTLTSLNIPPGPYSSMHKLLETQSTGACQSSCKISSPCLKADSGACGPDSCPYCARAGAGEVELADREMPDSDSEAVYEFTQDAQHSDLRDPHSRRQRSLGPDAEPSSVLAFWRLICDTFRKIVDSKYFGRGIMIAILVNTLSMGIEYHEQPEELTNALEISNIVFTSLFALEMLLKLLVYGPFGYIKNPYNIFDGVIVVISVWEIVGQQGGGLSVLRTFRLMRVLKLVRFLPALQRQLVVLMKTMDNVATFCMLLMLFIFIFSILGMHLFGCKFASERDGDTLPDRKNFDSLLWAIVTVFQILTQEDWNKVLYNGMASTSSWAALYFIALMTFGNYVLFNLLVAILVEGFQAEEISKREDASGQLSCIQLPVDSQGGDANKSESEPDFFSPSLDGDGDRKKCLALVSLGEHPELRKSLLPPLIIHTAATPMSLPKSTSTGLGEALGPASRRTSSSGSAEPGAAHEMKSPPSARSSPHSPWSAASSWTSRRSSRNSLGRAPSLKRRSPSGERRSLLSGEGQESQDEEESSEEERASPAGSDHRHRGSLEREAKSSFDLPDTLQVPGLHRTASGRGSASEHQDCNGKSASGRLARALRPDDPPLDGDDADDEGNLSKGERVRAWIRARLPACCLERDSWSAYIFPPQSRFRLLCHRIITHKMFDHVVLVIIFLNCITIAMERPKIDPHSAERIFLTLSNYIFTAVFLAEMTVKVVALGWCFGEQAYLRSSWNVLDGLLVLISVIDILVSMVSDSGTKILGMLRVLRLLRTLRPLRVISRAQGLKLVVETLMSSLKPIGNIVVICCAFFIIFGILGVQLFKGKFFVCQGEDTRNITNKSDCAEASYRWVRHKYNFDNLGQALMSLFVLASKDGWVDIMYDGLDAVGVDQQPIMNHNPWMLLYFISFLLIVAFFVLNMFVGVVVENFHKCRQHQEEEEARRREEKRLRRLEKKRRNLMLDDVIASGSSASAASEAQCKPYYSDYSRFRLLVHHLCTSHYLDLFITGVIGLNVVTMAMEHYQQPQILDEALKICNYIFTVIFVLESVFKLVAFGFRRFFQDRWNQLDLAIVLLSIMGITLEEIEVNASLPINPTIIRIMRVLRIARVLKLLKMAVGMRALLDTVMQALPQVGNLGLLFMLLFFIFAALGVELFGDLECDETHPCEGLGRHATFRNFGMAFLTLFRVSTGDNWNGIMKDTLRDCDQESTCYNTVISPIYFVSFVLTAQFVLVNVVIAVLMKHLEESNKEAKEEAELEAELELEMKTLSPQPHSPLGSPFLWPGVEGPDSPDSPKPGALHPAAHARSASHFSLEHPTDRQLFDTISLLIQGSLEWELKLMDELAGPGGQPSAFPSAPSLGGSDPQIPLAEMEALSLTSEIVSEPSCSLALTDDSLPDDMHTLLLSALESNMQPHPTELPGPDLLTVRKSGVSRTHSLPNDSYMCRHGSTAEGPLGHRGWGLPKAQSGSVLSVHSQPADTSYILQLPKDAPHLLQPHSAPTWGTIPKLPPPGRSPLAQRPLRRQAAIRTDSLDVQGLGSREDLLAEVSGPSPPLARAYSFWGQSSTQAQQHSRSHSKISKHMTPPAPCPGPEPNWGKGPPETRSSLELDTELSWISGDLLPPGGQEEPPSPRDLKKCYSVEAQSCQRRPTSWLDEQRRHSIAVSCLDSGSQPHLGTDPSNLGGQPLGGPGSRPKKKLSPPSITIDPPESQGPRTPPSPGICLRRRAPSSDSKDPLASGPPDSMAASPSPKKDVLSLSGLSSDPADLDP
Molecule,Peak current density [1],Calcium current density (unit not given) [1],Activation K [1],Activation V½ [1],Deactivation τ @−100 mV [1],Inactivation K [1],Inactivation V½ [1],Inactivation τ @−20 mV [1],Time to peak @−25 mV [1],other results
"γ6 TM1: first transmembrane domain of γ6, approximately 20 amino acids, SEQ ID NO:12 (KLGLLVAIVGATLAVLAVGT)",38.65±2.92 pA/pF,−38.6+/−2.9,10.85 ± 0.49,−30.33 ± 2.32 mV,2.01 ± 0.21 ms,−5.54 ± 0.12,−62.43 ± 0.65 mV,24.0 ± 1.3 ms,11.06 ± 0.97,"Decrease of peak current density from control ([1]; TM1 series, vs blank vector): 20%; Activation V peak [1]: −26.00±1.00 mV; Activation V peak ([1]; listed as γ6 1stTM): −26.00 ± 1.00 mV"
"γ4 TM1: first transmembrane domain of γ4, SEQ ID NO:17 (LLTTAGAFAAFSLMAIAIGT)",56.34±5.01 pA/pF,−48.3+/−3,13.29 ± 0.70,−29.71 ± 2.03 mV,2.40 ± 0.22 ms,−5.92 ± 0.12,−66.17 ± 0.83 mV,25.5 ± 0.9 ms,9.00 ± 0.51,Activation V peak ([1]; listed as γ4 1stTM): −28.57 ± 0.82 mV; Activation V peak ([1]; listed as γ4 first transmembrane domain): −28.57±0.82 mV
"γ6 L43S: γ6 with leucine at position 43 substituted with serine (protein, UniProt Q9BXT2 1-260, looked up, variant L43S) Voltage-dependent calcium …: MMWSNFFLQEENRRRGAAGRRRAHGQGRSGLTPEREGKVKLASLLAAVGATLAVLSVGTEFWVELNTYKANGSAVCEAAHLGLWKACTKRLWQADVPVDRDTCGPAELPGEANCTYFKFFTTGENARIFQRTTKKEVNLAAAVIAVLGLAVMALGCLCIIMVLSKGAEFLLRVGAVCFGLSGLLLLVSLEVFRHSVRALLQRVSPEPPPAPRLTYEYSWSLGCGVGAGLILLLGAGCFLLLTLPSWPWGSLCPKRGHRAT",–,–,–,–,–,–,–,–,–,Normalized Current Density [1]: 48.2%; Normalized Current Density ([1]; listed as L43S): 48.2%±7.2%
"γ7: rat calcium channel γ7 subunit (AF361345), SEQ ID NO:50 (protein, listed as Rattus norvegicus) MSHCSSRALTLLSSVFGACGLLLVGIAVSTDYWLYMEEGTVLPQNQTTEVKMALHAGLWRVCFFAGREKGRCVASEYFLEPEINLVTENTENILKTVRTATPFPMVSLFLVFTAFVISNIGHIRPQRTILAFVSGIFFILSGLSLVVGLVLYISSINDEVMNRPSSSEQYFHYRYGWSFAFAASSFLLKEGAGVMSVYLFTKRYAEEEMYRPHPAFYRPRLSDCSDYSGQFLQPEAWRRGRSPSDISSDVSIQMTQNYPPAIKYPDHLHISTSPC",–,–,–,–,–,–,–,–,–,"Effect on current kinetics or voltage dependency ([2]; HEK-293/Cav3.1): did not alter current kinetics or voltage dependency; Peak current density, % of control value ([2]; HEK-293/Cav3.1, normalized to adCGI vector control, mean±S.E.M.): 99%±8%; Effect on Cav3.1 current ([2]; HEK-293 cells): no significant effect; Activation V 0.5 ([2]; Table 2): −28.1 ± 1.2 (n = 11) mV; Activation k ([2]; Table 2): 11.1 ± 0.3 (n = 11); Deactivation tau @ −100 mV, Fast ([2]; Table 2): 1.30 ± 0.10 (n = 11) ms; Inactivation Tau @ −20 mV ([2]; Table 2): 17.2 ± 0.5 (n = 10) ms; Inactivation V 0.5 ([2]; Table 2): −68.6 ± 1.4 (n = 10) mV; Inactivation k ([2]; Table 2): 6.0 ± 0.1 (n = 10); Time to peak @ −20 mV ([2]; Table 2): 7.0 ± 0.4 (n = 11) ms; V peak ([2]; Table 2): −24.1 ± 0.9 (n = 11) mV"
